According to patent US20240254222A1 (Bayer, published 2024):
Positions count from the first letter of the chain named.

T1: Rat Semaphorin3A-Sema Domain, TPP-19120 (rat, UniProt Q63548 21-569)
T1 construct: produced inhouse
T1 sequence: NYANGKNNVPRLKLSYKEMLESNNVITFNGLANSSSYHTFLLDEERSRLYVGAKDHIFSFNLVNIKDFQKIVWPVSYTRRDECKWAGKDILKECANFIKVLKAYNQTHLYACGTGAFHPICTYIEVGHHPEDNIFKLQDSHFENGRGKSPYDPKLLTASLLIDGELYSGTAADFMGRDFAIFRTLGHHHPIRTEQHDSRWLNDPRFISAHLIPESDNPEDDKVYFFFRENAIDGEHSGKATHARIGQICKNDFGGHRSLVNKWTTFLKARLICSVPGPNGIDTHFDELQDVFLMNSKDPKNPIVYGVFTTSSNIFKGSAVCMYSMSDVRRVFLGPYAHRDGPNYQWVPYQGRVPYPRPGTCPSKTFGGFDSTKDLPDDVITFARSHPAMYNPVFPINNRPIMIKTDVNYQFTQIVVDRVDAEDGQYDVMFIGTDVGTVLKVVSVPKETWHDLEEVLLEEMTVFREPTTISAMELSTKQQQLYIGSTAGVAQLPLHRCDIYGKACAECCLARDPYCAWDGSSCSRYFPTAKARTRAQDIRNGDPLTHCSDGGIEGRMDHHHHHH

T2: Dog Semaphorin3A-Sema Domain, TPP-19121 (dog, UniProt Q63548 21-569 (rat entry), limits assumed)
T2 construct: produced inhouse
T2 chain: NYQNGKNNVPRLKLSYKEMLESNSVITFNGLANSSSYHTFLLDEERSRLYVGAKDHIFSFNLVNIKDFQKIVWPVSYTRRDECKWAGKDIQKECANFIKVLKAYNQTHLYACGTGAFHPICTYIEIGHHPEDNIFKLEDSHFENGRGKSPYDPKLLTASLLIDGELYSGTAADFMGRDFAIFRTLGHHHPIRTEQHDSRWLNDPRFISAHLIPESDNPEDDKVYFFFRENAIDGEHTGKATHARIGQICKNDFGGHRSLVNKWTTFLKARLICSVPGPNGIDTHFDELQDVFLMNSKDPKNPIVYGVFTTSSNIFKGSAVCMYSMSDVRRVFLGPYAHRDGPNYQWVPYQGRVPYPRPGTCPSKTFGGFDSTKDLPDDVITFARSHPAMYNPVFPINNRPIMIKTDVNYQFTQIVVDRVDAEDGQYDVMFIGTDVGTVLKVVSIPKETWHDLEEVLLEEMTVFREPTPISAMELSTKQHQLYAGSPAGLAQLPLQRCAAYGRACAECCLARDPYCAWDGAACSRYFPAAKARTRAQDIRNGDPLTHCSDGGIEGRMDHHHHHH

T3: Pig Semaphorin3A-Sema Domain, TPP-20176 (pig, UniProt Q63548 21-569 (rat entry))
T3 construct: produced inhouse
T3 chain: T1 sequence with A3Q, V126I, Q138E, S237T, I303V, V444I, I483V, T486A

B1: TPP-23337 (antibody, human IgG4 S228P, lambda, V domains shown)
VH: EVQLLESGGGLVQPGGSLRLSCAASGFTFSSYAMSWVRQAPGKGLEWVSAIGYGGDTYYADSVKGRFTISRDNSKNTLYLQMNSLRAEDTAVYYCARRDDYTSRDAFDYWGQGTLVTVSS
VL: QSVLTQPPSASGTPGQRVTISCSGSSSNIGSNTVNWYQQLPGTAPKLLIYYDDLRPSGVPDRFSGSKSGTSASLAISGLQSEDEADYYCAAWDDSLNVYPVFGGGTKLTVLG
B2: TPP-23374 (antibody, human IgG4 S228P, lambda, V domains shown)
VH: B1 VH with S30Y
VL: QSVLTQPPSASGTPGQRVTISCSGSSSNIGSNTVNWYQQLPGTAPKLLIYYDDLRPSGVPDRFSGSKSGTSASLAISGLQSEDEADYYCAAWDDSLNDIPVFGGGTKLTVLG
B3: TPP-23298 (antibody, human IgG4 S228P, lambda, V domains shown)
VH: B1 VH with S30Y, Y53T
VL: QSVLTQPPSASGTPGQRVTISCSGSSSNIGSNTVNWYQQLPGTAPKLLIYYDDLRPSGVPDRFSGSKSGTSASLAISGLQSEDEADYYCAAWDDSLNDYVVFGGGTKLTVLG
B4: TPP-23334 (antibody, human IgG4 S228P, lambda, V domains shown)
VH: B1 VH
VL: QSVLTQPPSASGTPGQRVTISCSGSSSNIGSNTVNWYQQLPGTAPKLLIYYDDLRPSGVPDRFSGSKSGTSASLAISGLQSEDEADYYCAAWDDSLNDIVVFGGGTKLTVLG
B5: TPP-30788 (antibody, human IgG1, kappa, V domains shown)
VH: EVQLVESGGGLVQPGGSLRLSCAASGFTFSSYYMSWVRQAPGKGLEWVSTIIKSGGYAYYPDSVKDRFTISRDNSKNTLYLQMSSLRAEDTAVYYCVRGGQGAMDYWGQGTTVTVSS
VL: EIVLTQSPATLSLSPGERATLSCRASQSIGDYLHWYQQKPGQAPRLLIKYASQSISGIPARFSGSGSGTDFTLTITSLEPEDFAVYYCQQGYSFPYTFGGGTKLEIKR
notes: prior art, WO 2020/225400; also called BI clone I; Böhringer (BI) Clone I
B6: TPP-30791 (antibody, human IgG1, kappa, V domains shown)
VH: B5 VH with V12L, P14L, Y80N, S84N, R98K
VL: B5 VL with T76S
notes: prior art, WO 2020/225400; also called BI clone IV; Böhringer (BI) Clone IV

target: Human Semaphorin3A-Fc (R&D Systems), TPP-13211 (human); assay: cell-based or functional assay

B1 was tested. Which “EC50 [nM], MCM assay” value did it give?
Its value is 0.33 nM.

B2 was tested. Which “EC50 [nM], MCM assay” value did it give?
Its value is 0.3 nM.

Which “EC50 [nM], MCM assay” value does the source give for B3 here?
The value was 0.4 nM.

Which “EC50 [nM], MCM assay” value does the source give for B4 here?
The value was 0.67 nM.

With B5 as the binder, how does the “EC50 [nM], MCM assay” value read?
Its value is 1.43 nM.

target: T1, Rat Semaphorin3A-Sema Domain, TPP-19120; assay: SPR, captured antibody, Sema3A domain analyte
Procedure, shortened: (§1)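 Kinetics fitted to a 1:1 Langmuir model after double referencing; glycine pH 2.0 regeneration. Sema3A domain analytes (several species) ran at […]-3.125 nM multi-cycle or single 100 nM; Fc-tagged Sema3A at 1.56-200 nM over Fab-captured antibody, otherwise Fc capture. Buffer HBS P+ plus 300 mM NaCl, CaCl₂, MgCl₂, BSA, 25° C.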

How did the Kd turn out when B1 was run?
Its Kd is 0.11 nM.

For B2, which Kd is on record?
The Kd was 0.0033 nM.

B3 was tested. Which Kd did it give?
The Kd was 0.03 nM.

B4 was tested. Which Kd did it give?
The Kd was 0.056 nM.

How did the Kd turn out when B5 was run?
Its Kd is 0.026 nM.

With B6 as the binder, how does the Kd read?
Its Kd is 0.017 nM.

Target: T2, Dog Semaphorin3A-Sema Domain, TPP-19121
Assay: SPR, captured antibody, Sema3A domain analyte
Procedure, shortened: as §1

With B1 as the binder, how does the Kd read?
Its Kd is 0.0045 nM.

How did the Kd turn out when B2 was run?
Its Kd is 0.0073 nM.

B3 was tested. Which Kd did it give?
The Kd was 0.07 nM.

For B4, which Kd is on record?
The Kd was 0.0084 nM.

B5 was tested. Which Kd did it give?
Its Kd is 0.11 nM.

B6 was tested. Which Kd did it give?
The Kd was 0.078 nM.

Target: T3, Pig Semaphorin3A-Sema Domain, TPP-20176
Assay: SPR, captured antibody, Sema3A domain analyte
Procedure, shortened: as §1

B1 was tested. Which Kd did it give?
Its Kd is 0.011 nM.

For B2, which Kd is on record?
Its Kd is < 0.003 nM.

Which Kd does the source give for B3 here?
Its Kd is 0.067 nM.

For B4, which Kd is on record?
Its Kd is 0.014 nM.

How did the Kd turn out when B5 was run?
The Kd was 0.038 nM.

For B6, which Kd is on record?
Its Kd is 0.029 nM.

target: T4, Human Semaphorin3A-Fc (R&D Systems), TPP-13211 (human); assay: ELISA, coated Sema3A-Fc, antibody 0.00015-10 ug/ml
T4 construct: R&D Systems 1250-S3; also called recombinant human Sema3A-Fc chimera
Procedure: For the assessment of binding selectivity to Sema3A vs Sema3G, 1 nM recombinant human Sema3A-Fc chimera (R&D Systems) or recombinant human GST—Sema3G (Abnova) were coated on Maxisorb plates, incubated with antibodies in a dose-response curve from 0.00015-10 μg/ml, and the binding of antibodies quantified using HRP coupled anti-human antiserum and chemiluminescent substrate.

T4 sequence (chain, as listed by the source limits assumed): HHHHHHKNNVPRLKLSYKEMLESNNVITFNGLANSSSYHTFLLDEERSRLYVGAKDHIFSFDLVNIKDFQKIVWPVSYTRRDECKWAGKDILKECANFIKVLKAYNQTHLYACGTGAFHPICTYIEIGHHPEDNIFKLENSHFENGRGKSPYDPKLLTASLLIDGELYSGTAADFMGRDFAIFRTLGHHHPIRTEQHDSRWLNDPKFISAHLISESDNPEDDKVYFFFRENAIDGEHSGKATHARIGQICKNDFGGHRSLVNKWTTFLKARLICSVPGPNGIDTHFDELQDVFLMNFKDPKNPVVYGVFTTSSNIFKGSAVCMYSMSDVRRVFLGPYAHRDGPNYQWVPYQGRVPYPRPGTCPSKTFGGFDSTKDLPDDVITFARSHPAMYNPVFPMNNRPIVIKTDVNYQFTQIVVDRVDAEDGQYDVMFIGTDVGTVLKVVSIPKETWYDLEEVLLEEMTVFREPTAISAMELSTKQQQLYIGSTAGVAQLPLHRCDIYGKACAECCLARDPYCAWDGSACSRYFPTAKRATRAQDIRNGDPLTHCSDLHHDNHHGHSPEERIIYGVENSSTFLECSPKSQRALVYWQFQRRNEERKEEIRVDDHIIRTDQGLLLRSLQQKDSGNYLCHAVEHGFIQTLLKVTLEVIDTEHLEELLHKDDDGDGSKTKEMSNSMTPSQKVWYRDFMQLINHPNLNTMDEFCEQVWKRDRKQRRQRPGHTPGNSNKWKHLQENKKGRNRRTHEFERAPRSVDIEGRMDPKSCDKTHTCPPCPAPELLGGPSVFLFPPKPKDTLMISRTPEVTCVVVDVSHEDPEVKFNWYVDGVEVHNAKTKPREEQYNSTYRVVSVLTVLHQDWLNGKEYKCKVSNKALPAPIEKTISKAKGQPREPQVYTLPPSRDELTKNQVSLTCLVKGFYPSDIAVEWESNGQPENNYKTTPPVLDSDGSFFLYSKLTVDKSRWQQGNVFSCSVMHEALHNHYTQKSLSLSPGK

For B1, which EC50 is on record?
Its EC50 is 15.5 nM.

With B2 as the binder, how does the EC50 read?
Its EC50 is 6.1 nM.

How did the EC50 turn out when B3 was run?
Its EC50 is 1.6 nM.

B4 was tested. Which EC50 did it give?
Its EC50 is 9.2 nM.

Which EC50 does the source give for B5 here?
Its EC50 is 0.15 nM.

For B6, which EC50 is on record?
The EC50 was 0.08 nM.
